Test results taken from US20200268847A1, “Methods of Treating Newly Diagnosed Multiple Myeloma with a Combination of An Antibody that Specifically Binds CD38, Lenalidomide and Dexamethasone” (Janssen Biotech, Inc., priority 2019, published 2020).

Key:
[1] = test system: transplant-ineligible newly diagnosed multiple myeloma (NDMM); assay: MAIA subgroup analysis by age (<75 vs ≥75 y): efficacy; assay type: in vivo, human; settings: for PFS HR (95% CI): DRd vs Rd
Protocol: To examine the impact of age on the efficacy and safety of D-Rd vs Rd in this patient population, a subgroup analysis was conducted within patients <75 and >75 y of age.
Transplant-ineligible NDMM patients were randomized 1:1 to Rd±DARA; stratification was based on age (<75 vs >75 years), ISS (I, II, III), and region (North America vs Other). In standard Rd dosing, patients received 28-day cycles of lenalidomide 25 mg PO QD on Days 1-21 and dexamethasone 40 mg PO on Days 1, 8, 15 and 22 until progression. A portion of patients received 10 mg lenalidomide and 20 mg dexamethasone at the beginning of the treatment. In the DRd arm, patients received daratumumab (DARZALEX®) 16 mg/kg IV QW for Cycles 1-2, Q2W for Cycles 3-6, and Q4W thereafter until progression. PFS was the primary endpoint.

[2] = test system: patients with newly diagnosed multiple myeloma ineligible for HDC and ASCT; assay: MAIA: safety, adverse events graded by NCI-CTCAE version 4, treatment discontinuations
Description: (§1) Safety will be measured by adverse events, laboratory test results, ECGs, vital sign measurements, physical examination findings, and assessment of ECOG performance status score.
(§2) Safety analyses included adverse event assessment graded in severity according to NCI-CTCAE version 4, electrocardiograms, clinical laboratory testing, physical examinations, and vital signs.
(§3) The safety population included patients who received any dose of trial treatment.

[3] = test system: patients with newly diagnosed multiple myeloma ineligible for HDC and ASCT; settings: in vivo
Description: as §1, §2, §3

[4] = Grade 3 or 4, safety population

For “daratumumab (DARZALEX®) group: daratumumab (DARZALEX®) in combination with lenalidomide and dexamethasone”, the “30-mo PFS” value ([1]; <75 y) was 75%, the “MRD-negative rate (10^−5)” value ([1]; <75 y) was 28% and the ORR ([1]; <75 y) was 95%. For the same substance, the “≥CR” value ([1]; <75 y) was 52%, the “≥VGPR” value ([1]; <75 y) was 81% and the “PFS HR (95% CI)” value ([1]; <75 y, listed as D-Rd) was 0.50. For the same substance, the “PFS HR (95% CI)” value ([1]; <75 y, listed as DRd) was 0.50 (0.35-0.71), the “PFS Median” value ([1]; <75 y, median follow-up 28 months, listed as D-Rd) was “not reached” and the “30-mo PFS” value ([1]; ≥75 y) was 66%. For the same substance, the “MRD-negative rate (10^−5)” value ([1]; ≥75 y) was 19%, the ORR ([1]; ≥75 y) was 90% and the “≥CR” value ([1]; ≥75 y) was 41%. The “≥VGPR” value ([1]; ≥75 y) was 77%, the “PFS HR (95% CI)” value ([1]; ≥75 y, listed as D-Rd) was 0.63 and the “PFS HR (95% CI)” value ([1]; ≥75 y, listed as DRd) was 0.63 (0.44-0.92). For the same substance, the “patients with adverse events leading to discontinuation of trial treatment” value [2] was 7.1%, the “adverse events leading to death” value ([2]; % of patients) was 6.9% and the “invasive second primary malignancies” value ([2]; % of patients) was 3.3%. The “pneumonia as adverse event leading to death” value ([2]; % of patients) was 0.5%, the “pneumonia as serious adverse event” value ([2]; % of patients) was 13.2% and the serious adverse events ([2]; % of patients) was 62.9%. The Any infusion-related reaction ([2]; Any Grade, safety population) was 149 (40.9) number of patients (percent), the Asthenia ([2]; Any Grade, safety population) was 117 (32.1) number of patients (percent) and the Back pain ([2]; Any Grade, safety population) was 123 (33.8) number of patients (percent). The Constipation ([2]; Any Grade, safety population) was 149 (40.9) number of patients (percent), the Diarrhea ([2]; Any Grade, safety population) was 207 (56.9) number of patients (percent) and the Fatigue ([2]; Any Grade, safety population) was 147 (40.4) number of patients (percent). For the same substance, the “Invasive second primary malignancy” value ([2]; Any Grade, safety population) was 12 (3.3) number of patients (percent), the Nausea ([2]; Any Grade, safety population) was 115 (31.6) number of patients (percent) and the Peripheral edema ([2]; Any Grade, safety population) was 140 (38.5) number of patients (percent). For the same substance, the Second primary malignancy ([2]; Any Grade, safety population) was 32 (8.8) number of patients (percent), the anemia ([2]; Any Grade, safety population) was 126 (34.6) number of patients (percent) and the leukopenia ([2]; Any Grade, safety population) was 68 (18.7) number of patients (percent). The lymphopenia ([2]; Any Grade, safety population) was 66 (18.1) number of patients (percent), the pneumonia ([2]; Any Grade, safety population) was 82 (22.5) number of patients (percent) and the neutropenia ([2]; Any Grade, safety population (N = 364 vs 365)) was 207 (56.9) number of patients (percent). The Any infusion-related reaction [2, 4] was 10 (2.7) number of patients (percent), the Asthenia [2, 4] was 16 (4.4) number of patients (percent) and the Back pain [2, 4] was 11 (3.0) number of patients (percent). For the same substance, the Constipation [2, 4] was 6 (1.6) number of patients (percent), the Diarrhea [2, 4] was 24 (6.6) number of patients (percent) and the Fatigue [2, 4] was 29 (8.0) number of patients (percent). For the same substance, the Nausea [2, 4] was 5 (1.4) number of patients (percent), the Peripheral edema [2, 4] was 7 (1.9) number of patients (percent) and the anemia [2, 4] was 43 (11.8) number of patients (percent). The leukopenia [2, 4] was 40 (11.0) number of patients (percent), the lymphopenia [2, 4] was 55 (15.1) number of patients (percent) and the neutropenia [2, 4] was 182 (50.0) number of patients (percent). The pneumonia [2, 4] was 50 (13.7) number of patients (percent), the “treatment discontinued due to adverse events” value ([2]; at clinical cutoff date Sep. 24, 2018) was 7.4% and the anemia ([2]; grade 3/4 adverse events) was 11.8%. For the same substance, the leukopenia ([2]; grade 3/4 adverse events) was 11.0%, the lymphopenia ([2]; grade 3/4 adverse events) was 15.1% and the neutropenia ([2]; grade 3/4 adverse events) was 50.0%. The pneumonia ([2]; grade 3/4 adverse events) was 13.7%, the “discontinued treatment due to neutropenia” value ([2]; in vivo) was “no patients” and the “invasive second primary malignancies: hematologic malignancies” value ([2]; in vivo) was 0.5%. The “invasive second primary malignancies: solid tumors” value ([2]; in vivo) was 2.7%, the “lenalidomide dose delays, reductions, re-escalations, or skipping (combined) due to treatment-emergent adverse events” value ([2]; in vivo) was 77.5% and the “lenalidomide dose discontinuations due to treatment-emergent adverse events” value ([2]; in vivo) was 20.9%. The “discontinuation of trial treatment due to infections” value [3] was 0.5%, the “rate of any-grade infections” value [3] was 86.3% and the “rate of grade 3 or 4 infections” value [3] was 32.1%.
